# Measured values: US20100221798
# Molecular target: octadecenoyl-ACP
protein,measurement,value
Synechococcus elongatus PCC7942 orf1594 protein (YP-400611; Synpcc7942-1594; acyl-ACP reductase) with C-terminal His-tag (protein) MFGLIGHLTSLEQARDVSRRMGYDEYADQGLEFWSSAPPQIVDEITVTSATGKVIHGRYIESCFLPEMLAARRFKTATRKVLNAMSHAQKHGIDISALGGFTSIIFENFDLASLRQVRDTTLEFERFTTGNTHTAYVICRQVEAAAKTLGIDITQATVAVVGATGDIGSAVCRWLDLKLGVGDLILTARNQERLDNLQAELGRGKILPLEAALPEADFIVWVASMPQGVVIDPATLKQPCVLIDGGYPKNLGSKVQGEGIYVLNGGVVEHCFDIDWQIMSAAEMARPERQMFACFAEAMLLEFEGWHTNFSWGRNQITIEKMEAIGEASVRHGFQPLALAI,"Km for the reduction of octadecenoyl-ACP in the presence of 2 mM NADPH (in vitro reductase assay, aldehyde formed measured by GC/MS)",7.8 ± 2 µM
